Assay results taken from patent US20140087995A1 (published 2014).
Numbered stars: 1 amine (or outer) side, 2 acyl side, 3 side chain; on linkers, the order of the positions; unused ones are H or OH. Bridge positions count the residues as written; N and C are the ends. Side chains are listed from the residue outwards. Ends that are not written are not given here. * marks the point of attachment. C20 diacid = O=C(O)CCCCCCCCCCCCCCCCCCC(=O)*; γGlu = O=C(O)[C@H](CCC(=O)[*:2])N[*:1]

T1: human calcitonin receptor (human, UniProt P30988 25-474)
T1 construct: whole, on cells; Used as cell membranes prepared from the transfected BHK cells (Assay VII), not as intact cells; also called hCTR; hCT
T1 sequence (looked up): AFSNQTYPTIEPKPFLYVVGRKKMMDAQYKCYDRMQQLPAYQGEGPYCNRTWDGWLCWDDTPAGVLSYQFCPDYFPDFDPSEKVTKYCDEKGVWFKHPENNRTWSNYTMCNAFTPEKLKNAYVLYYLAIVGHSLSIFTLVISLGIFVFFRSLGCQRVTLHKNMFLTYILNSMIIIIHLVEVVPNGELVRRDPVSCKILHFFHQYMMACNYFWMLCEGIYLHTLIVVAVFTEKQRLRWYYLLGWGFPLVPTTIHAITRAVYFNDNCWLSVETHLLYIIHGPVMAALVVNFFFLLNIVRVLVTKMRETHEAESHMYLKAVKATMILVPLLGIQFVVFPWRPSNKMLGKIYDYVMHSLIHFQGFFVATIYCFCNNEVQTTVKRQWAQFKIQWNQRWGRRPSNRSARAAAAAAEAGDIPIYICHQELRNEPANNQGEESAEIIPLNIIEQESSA


These binders were tested against T1, human calcitonin receptor (assay: SPA competition against 125I-calcitonin, membranes with human calcitonin receptor (Assay VII)).
Protocol: Membranes were prepared in the following way; the cells were rinsed with PBS and incubated with Versene for approximately 5 min before harvesting. The cells were flushed with PBS and the cell-suspension was centrifuged for 5 min at 1000 rpm. Cells were homogenized (Ultrathurrax) in a buffer containing 20 mM Na-HEPES and 10 mM EDTA (pH 7.4) and centrifuged at 20.000 rpm for 15 min. The resulting pellet was resuspended, homogenized and centrifuged (20.000 rpm, 15 min) in a buffer containing 20 mM Na-HEPES and 0.1 mM EDTA (pH 7.4, buffer 2). The resulting pellet was resuspended in buffer 2 and protein concentration was measured (BCA protein Assay, Pierce). The homogenate was kept cold during the whole procedure. The membranes were kept at −80° C. until use. Assay was performed in a 384 well Optiplate (PerkinElmer) in a total volume of 40 ul. Membranes were mixed with SPA beads. Final concentration of membranes 35 ng/μL final and Final concentration of SPA beads was 0.05 mg/well. Test-compounds were dissolved in DMSO and further diluted in assay buffer (50 mM Hepes, pH 7.4, 1 mM CaCl2, 5 mM MgCl₂, 0.1% OA and 0.02% Tween20). […] The final mixture was incubated for 120 min with shaking at 400 rpm at 25° C. prior to centrifugation (1500 rpm, 10 min). Samples were analyzed on TopCounter™ (Packard). The […] was calculated using (one site binding competition analysis) GraphPad Prism5 as a measure of receptor affinity.

IC50 | Binder
0.0345 µM | K([γGlu-C20 diacid])CNTATCATQRLANFLRHSSPNFGAIPSSTNVGSETY-NH2 (disulfide 2-7; N-terminus assumed; SMILES CC[C@H](C)[C@H](NC(=O)[C@H](C)NC(=O)CNC(=O)[C@H](Cc1ccccc1)NC(=O)[C@H](CC(N)=O)NC(=O)[C@@H]1CCCN1C(=O)[C@H](CO)NC(=O)[C@H](CO)NC(=O)[C@H](Cc1c[nH]cn1)NC(=O)[C@H](CCCNC(=N)N)NC(=O)[C@H](CC(C)C)NC(=O)[C@H](Cc1ccccc1)NC(=O)[C@H](CC(N)=O)NC(=O)[C@H](C)NC(=O)[C@H](CC(C)C)NC(=O)[C@H](CCCNC(=N)N)NC(=O)[C@H](CCC(N)=O)NC(=O)[C@@H](NC(=O)[C@H](C)NC(=O)[C@@H]1CSSC[C@H](NC(=O)[C@@H](N)CCCCNC(=O)CC[C@H](NC(=O)CCCCCCCCCCCCCCCCCCC(=O)O)C(=O)O)C(=O)N[C@@H](CC(N)=O)C(=O)N[C@@H]([C@@H](C)O)C(=O)N[C@@H](C)C(=O)N[C@@H]([C@@H](C)O)C(=O)N1)[C@@H](C)O)C(=O)N1CCC[C@H]1C(=O)N[C@@H](CO)C(=O)N[C@@H](CO)C(=O)N[C@H](C(=O)N[C@@H](CC(N)=O)C(=O)N[C@H](C(=O)NCC(=O)N[C@@H](CO)C(=O)N[C@@H](CCC(=O)O)C(=O)N[C@H](C(=O)N[C@@H](Cc1ccc(O)cc1)C(N)=O)[C@@H](C)O)C(C)C)[C@@H](C)O, also called compound 27) [N^ε1-[(4S)-4-carboxy-4-(19-carboxynonadecanoylamino)butanoyl]-[Arg17,Pro21,Pro27,Glu35]-h-amylin]
0.0488 µM | K([γGlu-C20 diacid])CNTATCATQRLANFLRHSSPNFGAIPSSTNVGSKTY-NH2 (disulfide 2-7; N-terminus assumed; SMILES CC[C@H](C)[C@H](NC(=O)[C@H](C)NC(=O)CNC(=O)[C@H](Cc1ccccc1)NC(=O)[C@H](CC(N)=O)NC(=O)[C@@H]1CCCN1C(=O)[C@H](CO)NC(=O)[C@H](CO)NC(=O)[C@H](Cc1c[nH]cn1)NC(=O)[C@H](CCCNC(=N)N)NC(=O)[C@H](CC(C)C)NC(=O)[C@H](Cc1ccccc1)NC(=O)[C@H](CC(N)=O)NC(=O)[C@H](C)NC(=O)[C@H](CC(C)C)NC(=O)[C@H](CCCNC(=N)N)NC(=O)[C@H](CCC(N)=O)NC(=O)[C@@H](NC(=O)[C@H](C)NC(=O)[C@@H]1CSSC[C@H](NC(=O)[C@@H](N)CCCCNC(=O)CC[C@H](NC(=O)CCCCCCCCCCCCCCCCCCC(=O)O)C(=O)O)C(=O)N[C@@H](CC(N)=O)C(=O)N[C@@H]([C@@H](C)O)C(=O)N[C@@H](C)C(=O)N[C@@H]([C@@H](C)O)C(=O)N1)[C@@H](C)O)C(=O)N1CCC[C@H]1C(=O)N[C@@H](CO)C(=O)N[C@@H](CO)C(=O)N[C@H](C(=O)N[C@@H](CC(N)=O)C(=O)N[C@H](C(=O)NCC(=O)N[C@@H](CO)C(=O)N[C@@H](CCCCN)C(=O)N[C@H](C(=O)N[C@@H](Cc1ccc(O)cc1)C(N)=O)[C@@H](C)O)C(C)C)[C@@H](C)O, also called compound 35) [N^ε1-[(4S)-4-carboxy-4-(19-carboxynonadecanoylamino)butanoyl]-[Arg17,Pro21,Pro27,Lys35]-h-amylin]
0.0195 µM | K([γGlu-γGlu-C20 diacid])CNTATCATQRLADFLRHSSNPFGAPLSSTNVGSDTY-NH2 (disulfide 2-7; N-terminus assumed; SMILES CC(C)C[C@H](NC(=O)[C@H](CCCNC(=N)N)NC(=O)[C@H](CCC(N)=O)NC(=O)[C@@H](NC(=O)[C@H](C)NC(=O)[C@@H]1CSSC[C@H](NC(=O)[C@@H](N)CCCCNC(=O)CC[C@H](NC(=O)CC[C@H](NC(=O)CCCCCCCCCCCCCCCCCCC(=O)O)C(=O)O)C(=O)O)C(=O)N[C@@H](CC(N)=O)C(=O)N[C@@H]([C@@H](C)O)C(=O)N[C@@H](C)C(=O)N[C@@H]([C@@H](C)O)C(=O)N1)[C@@H](C)O)C(=O)N[C@@H](C)C(=O)N[C@@H](CC(=O)O)C(=O)N[C@@H](Cc1ccccc1)C(=O)N[C@@H](CC(C)C)C(=O)N[C@@H](CCCNC(=N)N)C(=O)N[C@@H](Cc1c[nH]cn1)C(=O)N[C@@H](CO)C(=O)N[C@@H](CO)C(=O)N[C@@H](CC(N)=O)C(=O)N1CCC[C@H]1C(=O)N[C@@H](Cc1ccccc1)C(=O)NCC(=O)N[C@@H](C)C(=O)N1CCC[C@H]1C(=O)N[C@@H](CC(C)C)C(=O)N[C@@H](CO)C(=O)N[C@@H](CO)C(=O)N[C@H](C(=O)N[C@@H](CC(N)=O)C(=O)N[C@H](C(=O)NCC(=O)N[C@@H](CO)C(=O)N[C@@H](CC(=O)O)C(=O)N[C@H](C(=O)N[C@@H](Cc1ccc(O)cc1)C(N)=O)[C@@H](C)O)C(C)C)[C@@H](C)O, also called compound 3)
0.0325 µM | K([γGlu-γGlu-C20 diacid])CNTATCATQRLADFLRHSSPNFGAPLSSTNVGSDTY-NH2 (disulfide 2-7; N-terminus assumed; SMILES CC(C)C[C@H](NC(=O)[C@H](CCCNC(=N)N)NC(=O)[C@H](CCC(N)=O)NC(=O)[C@@H](NC(=O)[C@H](C)NC(=O)[C@@H]1CSSC[C@H](NC(=O)[C@@H](N)CCCCNC(=O)CC[C@H](NC(=O)CC[C@H](NC(=O)CCCCCCCCCCCCCCCCCCC(=O)O)C(=O)O)C(=O)O)C(=O)N[C@@H](CC(N)=O)C(=O)N[C@@H]([C@@H](C)O)C(=O)N[C@@H](C)C(=O)N[C@@H]([C@@H](C)O)C(=O)N1)[C@@H](C)O)C(=O)N[C@@H](C)C(=O)N[C@@H](CC(=O)O)C(=O)N[C@@H](Cc1ccccc1)C(=O)N[C@@H](CC(C)C)C(=O)N[C@@H](CCCNC(=N)N)C(=O)N[C@@H](Cc1c[nH]cn1)C(=O)N[C@@H](CO)C(=O)N[C@@H](CO)C(=O)N1CCC[C@H]1C(=O)N[C@@H](CC(N)=O)C(=O)N[C@@H](Cc1ccccc1)C(=O)NCC(=O)N[C@@H](C)C(=O)N1CCC[C@H]1C(=O)N[C@@H](CC(C)C)C(=O)N[C@@H](CO)C(=O)N[C@@H](CO)C(=O)N[C@H](C(=O)N[C@@H](CC(N)=O)C(=O)N[C@H](C(=O)NCC(=O)N[C@@H](CO)C(=O)N[C@@H](CC(=O)O)C(=O)N[C@H](C(=O)N[C@@H](Cc1ccc(O)cc1)C(N)=O)[C@@H](C)O)C(C)C)[C@@H](C)O, also called compound 1)
0.0569 µM | K([γGlu-γGlu-C20 diacid])CNTATCATQRLADFLRHSSPNFGAIPSSTNVGSRTY-NH2 (disulfide 2-7; N-terminus assumed; SMILES CC[C@H](C)[C@H](NC(=O)[C@H](C)NC(=O)CNC(=O)[C@H](Cc1ccccc1)NC(=O)[C@H](CC(N)=O)NC(=O)[C@@H]1CCCN1C(=O)[C@H](CO)NC(=O)[C@H](CO)NC(=O)[C@H](Cc1c[nH]cn1)NC(=O)[C@H](CCCNC(=N)N)NC(=O)[C@H](CC(C)C)NC(=O)[C@H](Cc1ccccc1)NC(=O)[C@H](CC(=O)O)NC(=O)[C@H](C)NC(=O)[C@H](CC(C)C)NC(=O)[C@H](CCCNC(=N)N)NC(=O)[C@H](CCC(N)=O)NC(=O)[C@@H](NC(=O)[C@H](C)NC(=O)[C@@H]1CSSC[C@H](NC(=O)[C@@H](N)CCCCNC(=O)CC[C@H](NC(=O)CC[C@H](NC(=O)CCCCCCCCCCCCCCCCCCC(=O)O)C(=O)O)C(=O)O)C(=O)N[C@@H](CC(N)=O)C(=O)N[C@@H]([C@@H](C)O)C(=O)N[C@@H](C)C(=O)N[C@@H]([C@@H](C)O)C(=O)N1)[C@@H](C)O)C(=O)N1CCC[C@H]1C(=O)N[C@@H](CO)C(=O)N[C@@H](CO)C(=O)N[C@H](C(=O)N[C@@H](CC(N)=O)C(=O)N[C@H](C(=O)NCC(=O)N[C@@H](CO)C(=O)N[C@@H](CCCNC(=N)N)C(=O)N[C@H](C(=O)N[C@@H](Cc1ccc(O)cc1)C(N)=O)[C@@H](C)O)C(C)C)[C@@H](C)O, also called compound 52)
0.0195 µM | K([γGlu-γGlu-C20 diacid])CNTATCATQRLADFLRHSSPNFGAIPSSTNVGSDTY-NH2 (disulfide 2-7; N-terminus assumed; SMILES CC[C@H](C)[C@H](NC(=O)[C@H](C)NC(=O)CNC(=O)[C@H](Cc1ccccc1)NC(=O)[C@H](CC(N)=O)NC(=O)[C@@H]1CCCN1C(=O)[C@H](CO)NC(=O)[C@H](CO)NC(=O)[C@H](Cc1c[nH]cn1)NC(=O)[C@H](CCCNC(=N)N)NC(=O)[C@H](CC(C)C)NC(=O)[C@H](Cc1ccccc1)NC(=O)[C@H](CC(=O)O)NC(=O)[C@H](C)NC(=O)[C@H](CC(C)C)NC(=O)[C@H](CCCNC(=N)N)NC(=O)[C@H](CCC(N)=O)NC(=O)[C@@H](NC(=O)[C@H](C)NC(=O)[C@@H]1CSSC[C@H](NC(=O)[C@@H](N)CCCCNC(=O)CC[C@H](NC(=O)CC[C@H](NC(=O)CCCCCCCCCCCCCCCCCCC(=O)O)C(=O)O)C(=O)O)C(=O)N[C@@H](CC(N)=O)C(=O)N[C@@H]([C@@H](C)O)C(=O)N[C@@H](C)C(=O)N[C@@H]([C@@H](C)O)C(=O)N1)[C@@H](C)O)C(=O)N1CCC[C@H]1C(=O)N[C@@H](CO)C(=O)N[C@@H](CO)C(=O)N[C@H](C(=O)N[C@@H](CC(N)=O)C(=O)N[C@H](C(=O)NCC(=O)N[C@@H](CO)C(=O)N[C@@H](CC(=O)O)C(=O)N[C@H](C(=O)N[C@@H](Cc1ccc(O)cc1)C(N)=O)[C@@H](C)O)C(C)C)[C@@H](C)O, also called compound 2)
